Assay [1] addresses T1, Fc-fused CD40 (Ancell, #504-820) (human, UniProt P25942 21-193).
T1 construct: Bought reagent; not shown: Fc part of the bought fusion protein
Description: ELISA, coated Fc-fused CD40, full IgG. The method, then:
(§1) Purified full IgG molecules were analysed with ELISA. High binding flat bottom LIA plates (Greiner #655074) were coated with Fc-fused CD40 (Ancell, #504-820) at 0.05 μg/ml, and milk powder were used at 3% for blocking and at 1% for dilution. The antibodies to be tested were added in serial dilutions starting at 50 μg/ml and detection was carried out using HRP conjugated goat anti human Ig-Fc (Jackson ImmunoResearch, #109-035-098) and Super Signal Pico Chemiluminescent (ThermoScientific, #37069) was used as substrate.

Assay [2] has as its target T2, human CD40 (human, UniProt P25942 21-277). Put plainly: cell-based or functional assay.
Assay [3] has as its target T1, Fc-fused CD40 (Ancell, #504-820). Description: CD40 binding ELISA (summary table, Example 3). The method, then:
as §1

The target in assay [4] is T3, CD40hfc (R&Dsystems, USA) (human, UniProt P25942 21-193).
T3 construct: Bought reagent, amine-coupled to a CM5 chip; not shown: Fc part of the bought fusion protein
Description: SPR Biacore 3000, CD40hfc immobilized (summary table, Example 6). Here is the method:
(§2) The affinity constants of purified antibodies were assessed by surface plasmon resonance using the Biacore 3000 instrument according to manufacturer's protocols. CD40hfc (R&Dsystems, USA) was immobilized to the BIAcore sensorchip, CM5, using conventional amine coupling. Association was followed for 3 minutes and dissociation for 12 minutes. Regeneration was performed twice using 50 mM NaOH for 30 seconds. The kinetic parameters and the affinity constants were calculated using BIAevaluation 4.1 software. The CD40 antibody clones were run over the sensor at a flow rate of 30 μl/min in HBS-P (GE, BR-1003-68) at concentration ranges between 1-100 or 1-300 nM and analyzed using 1:1 Langmuir with drifting baseline.

Assay [5] has as its target T3, CD40hfc (R&Dsystems, USA). Put plainly: SPR Biacore 3000, CD40hfc immobilized on CM5, antibody as analyte, 1:1 Langmuir. The method, then:
as §2

Assay [6] addresses T2, human CD40. Description: cell-based or functional assay. The source holds these as a separate data set.
For a further assay, the target named is T4, murine CD40 (mouse, UniProt P27512 20-193, limits assumed).
T4 construct: How murine CD40 was presented in the assay is not described; also called mouse CD40
T4 sequence (P27512 20-193 limits assumed): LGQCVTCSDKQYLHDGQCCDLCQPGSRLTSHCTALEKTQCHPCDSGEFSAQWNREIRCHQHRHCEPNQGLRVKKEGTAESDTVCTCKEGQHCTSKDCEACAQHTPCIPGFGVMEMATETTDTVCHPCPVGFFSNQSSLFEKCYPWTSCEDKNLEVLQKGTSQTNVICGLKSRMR
Put plainly: chimeric domain mapping, flow cytometry. The source says:
(§3) Genes of CD40 human/mouse chimeras were synthesized (GenScript). The different chimeras were designed by exchanging domains or modules of the human CD40 with corresponding mouse CD40 domains or modules. The chimeras were designed after evaluation of the human and mouse sequences and 3D analysis of human CD40. The constructs were cloned into pcDNA3.1 vector (Invitrogen) using the restriction sites for NotI and HindIII. The mouse/human chimeras were transiently transfected into FreeStyle 293-F cells (Invitrogen), incubated 48 hours in FreeStyle 293 expression medium (Invitrogen) 37C, 8% CO2, 135 rpm.
(§4) Cells were analyzed with FACS Verse (BD Biosciences). Binding to the different chimeric constructs were determined with MFI to be either positive (+) or negative (−).

Assay [7] addresses T5, CD40 cys3B mouse: Human CD40 with mouse module B of domain 3 (122-143) (human; mouse, UniProt P25942 21-277).
T5 construct: Human/mouse chimera on FreeStyle 293-F cells; Human flanks inferred from the printed mouse range
T5 chain: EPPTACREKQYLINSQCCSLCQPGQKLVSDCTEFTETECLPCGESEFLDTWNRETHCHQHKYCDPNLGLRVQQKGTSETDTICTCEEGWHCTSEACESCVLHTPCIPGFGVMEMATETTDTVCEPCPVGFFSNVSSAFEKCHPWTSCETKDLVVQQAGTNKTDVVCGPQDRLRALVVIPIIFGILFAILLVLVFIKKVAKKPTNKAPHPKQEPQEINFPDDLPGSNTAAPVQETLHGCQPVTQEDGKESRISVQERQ
Description: flow cytometry on 293-F cells transfected with the chimera; MFI scored + or -.
Source text: as §3, §4

Assay [8] has as its target T6, CD40 cys2A mouse: Human CD40 with mouse module A of domain 2 (62-77) (human; mouse, UniProt P25942 21-277).
T6 construct: Human/mouse chimera on FreeStyle 293-F cells; Human flanks inferred from the printed mouse range
T6 chain: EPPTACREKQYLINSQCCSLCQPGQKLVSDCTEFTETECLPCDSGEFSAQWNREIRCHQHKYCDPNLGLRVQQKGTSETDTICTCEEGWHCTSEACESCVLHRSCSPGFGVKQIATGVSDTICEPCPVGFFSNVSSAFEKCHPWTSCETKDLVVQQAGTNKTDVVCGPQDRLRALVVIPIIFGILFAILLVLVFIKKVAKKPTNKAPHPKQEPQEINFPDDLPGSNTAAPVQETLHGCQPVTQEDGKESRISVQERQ
Described as above.
Source text: as §3, §4

The target in assay [9] is T7, CD40 cys1B mouse: Human CD40 with mouse module B of domain 1 (38-59) (human; mouse, UniProt P25942 21-277).
T7 construct: Human/mouse chimera on FreeStyle 293-F cells; Human flanks inferred from the printed mouse range
T7 chain: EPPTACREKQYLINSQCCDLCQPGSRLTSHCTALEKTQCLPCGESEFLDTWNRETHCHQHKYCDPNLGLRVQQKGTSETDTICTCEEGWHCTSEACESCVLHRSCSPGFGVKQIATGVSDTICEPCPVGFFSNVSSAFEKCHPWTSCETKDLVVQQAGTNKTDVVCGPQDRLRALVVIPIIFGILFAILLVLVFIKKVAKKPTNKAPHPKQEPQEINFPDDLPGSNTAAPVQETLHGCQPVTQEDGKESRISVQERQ
The description is as above.
Source text: as §3, §4

Consider seven molecules from patent US20160311916A1 (ALLIGATOR BIOSCIENCE, published 2016).

Numbering of substitutions follows the chain as printed.

B1: antibody 1136/1137 (antibody, V domains shown)
VH: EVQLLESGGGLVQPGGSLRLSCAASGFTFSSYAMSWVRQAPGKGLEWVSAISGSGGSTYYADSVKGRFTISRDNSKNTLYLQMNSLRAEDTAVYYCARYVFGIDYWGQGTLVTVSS
VL: DIQMTQSPSSLSASVGDRVTITCRASQSISSYLNWYQQKPGKAPKLLIYAASSLQSGVPSRFSGSGSGTDFTLTISSLQPEDFATYYCQQAYYAGLFTFGQGTKLEIK
notes: Re-cloned from scFv into full IgG format, made in 293 Freestyle cells
Regarding B1, the EC50 in assay [1] is 1.4 µg/mL. In the assay with human CD40 [2], this molecule registered a B cell proliferation of 1. This molecule registered an EC50 in assay [3] of 1.4 µg/mL. In [4], this molecule returned an equilibrium dissociation constant (Kd) of 11 nM, a koff of 0.0095 s⁻¹ and a kon of 900000 M⁻¹ s⁻¹. In [5], binding was characterised by a dissociation constant (Kd) of 11 nM, the koff was found to be 0.0095 s⁻¹ and the kon came out at 870000 M⁻¹ s⁻¹. The “Potency B cell proliferation (EC50)” value with human CD40 [6] was 1 µg/mL.

B2: antibody 1134/1135 (antibody, V domains shown)
VH: EVQLLESGGGLVQPGGSLRLSCAASGFTFSSYAMSWVRQAPGKGLEWVSSIYSGGGGTSYADSVKGRFTISRDNSKNTLYLQMNSLRAEDTAVYYCARGPAYSSFFDYWGQGTLVTVSS
VL: not shown
notes: as for B1
Take B2: the EC50 in assay [1] and in assay [3] was 0.025 µg/mL throughout. In addition, the B cell proliferation with human CD40 [2] is 1. In addition, the dissociation constant Kd in assay [4] and in assay [5] was 3.4 nM each time. The koff in [4] and in assay [5] was 0.0014 s⁻¹ throughout. In addition, the kon in assay [4] and in [5] was 400000 M⁻¹ s⁻¹ in each case. Moreover, in the assay with human CD40 [6], the “Potency B cell proliferation (EC50)” value came to 1 µg/mL.

B3: antibody 1150/1151 (antibody, V domains shown)
VH: EVQLLESGGGLVQPGGSLRLSCAASGFTFSSYAMSWVRQAPGKGLEWVSGIGGSSSYTSYADSVKGRFTISRDNSKNTLYLQMNSLRAEDTAVYYCARYYSYHMDYWGQGTLVTVSS
VL: DIQMTQSPSSLSASVGDHVTITCRASQSISSYLNWYQQKPGKAPKLLIYAASSLQSGVPSRFSGSGSGTDFTLTISSLQPEDFATYYCQQYGSAPPTFGQGTKLEIK
With B3, the EC50 in [1] and in assay [3] was 0.041 µg/mL in each case. Further, in the assay with human CD40 [2], the “B cell proliferation (see Example 3)” value was 0.9. For the same molecule, the “DC activation (index: IL-12p40 with antibody divided by IL-12p40 with isotype control)” value with human CD40 [2] was 7.8 index. Moreover, the binding result is listed as “no binding” with murine CD40, “binds” in assay [7], “binds” in assay [8] and “no binding” in [9]. Also, the Kd in [4] and in assay [5] was 1.5 nM in each case. Besides, the dissociation rate constant (koff) in assay [4] and in assay [5] was 0.0034 s⁻¹ in each case. For the same molecule, the kon in [4] and in assay [5] was 2.2e+06 M⁻¹ s⁻¹ in each case. For the same molecule, in the assay with human CD40 [6], the “Potency B cell proliferation (EC50)” value was 0.9 µg/mL.

B4: antibody 1146/1147 (antibody, V domains shown)
VH: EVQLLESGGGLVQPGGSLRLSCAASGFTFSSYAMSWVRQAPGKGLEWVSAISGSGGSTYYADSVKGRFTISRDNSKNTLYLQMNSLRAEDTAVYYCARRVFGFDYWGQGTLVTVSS
VL: B3 VL with H18R, G92Y, S93Y, A94Y, P96F
notes: as for B1
For B4, the half-maximal effective concentration (EC50) in [1] and in assay [3] was 0.58 µg/mL in each case. Besides, the “B cell proliferation (see Example 3)” value with human CD40 [2] is 3.6. Besides, in the assay with human CD40 [6], the “Potency B cell proliferation (EC50)” value is 3.6 µg/mL.

B5: antibody 1132/1133 (antibody, V domains shown)
VH: B3 VH with G53S, S54Y, S55G, S56G, Y57G, S59Y, Y100V, S101N, Y102F, H103G
VL: B3 VL with H18R, S93R, A94N
notes: as for B1
For the molecule B5, the 50% effective concentration (EC50) in [1] and in [3] was 0.28 µg/mL each time. The “B cell proliferation (see Example 3)” value with human CD40 [2] worked out at 2.2. Besides, the “DC activation (index: IL-12p40 with antibody divided by IL-12p40 with isotype control)” value with human CD40 [2] came to 10.8 index. Further, the binding result is reported as “no binding” in the assay with murine CD40, “binds” in [7], “binds” in assay [8] and “no binding” in [9]. The dissociation constant (Kd) in assay [4] and in assay [5] was 2.4 nM in each case. The koff in assay [4] and in assay [5] was 0.0081 s⁻¹ throughout. Besides, the kon in assay [4] and in [5] was 3.4e+06 M⁻¹ s⁻¹ each time. The “Potency B cell proliferation (EC50)” value with human CD40 [6] was found to be 2.2 µg/mL.

B6: antibody 1148/1149 (antibody, V domains shown)
VH: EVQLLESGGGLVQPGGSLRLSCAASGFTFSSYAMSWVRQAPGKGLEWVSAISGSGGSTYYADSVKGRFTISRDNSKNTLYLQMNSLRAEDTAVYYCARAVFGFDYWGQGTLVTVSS
VL: B3 VL with H18R, Y91A, G92Y, S93Y, A94F, P96H
notes: as for B1
Regarding B6, the EC50 in assay [1] and in assay [3] was 2.2 µg/mL throughout. For the same molecule, the “B cell proliferation (see Example 3)” value in the assay with human CD40 [2] amounted to 2.3. In the assay with human CD40 [6], the “Potency B cell proliferation (EC50)” value was determined as 2.3 µg/mL.

B7: antibody 1107/1108 (antibody, V domains shown)
VH: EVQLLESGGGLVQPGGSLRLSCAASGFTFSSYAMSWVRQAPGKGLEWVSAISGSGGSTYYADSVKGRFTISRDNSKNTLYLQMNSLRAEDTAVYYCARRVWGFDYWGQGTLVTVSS
VL: B3 VL with H18R, S93V, A94Y, P96F
notes: as for B1
Regarding B7, the EC50 in assay [1] and in assay [3] was 0.034 µg/mL throughout. Further, in the assay with human CD40 [2], the “B cell proliferation (see Example 3)” value is 0.7. Also, the “DC activation (index: IL-12p40 with antibody divided by IL-12p40 with isotype control)” value in the assay with human CD40 [2] is 22.3 index. The binding result with murine CD40 is listed as “no binding”; in assay [7], “binds”; in [8] it was “no binding”; in [9], “binds”. In addition, the equilibrium dissociation constant (Kd) in assay [4] and in assay [5] was 1.3 nM in each case. The koff in assay [4] and in [5] was 0.0013 s⁻¹ each time. Also, the kon in assay [4] and in assay [5] was 1e+06 M⁻¹ s⁻¹ in each case. Further, in the assay with human CD40 [6], the “Potency B cell proliferation (EC50)” value was 0.7 µg/mL.
